We go through eight variants from the supplement of paper PMC7125110.

As a reminder, the kcat is the maximal rate divided by the concentration of active sites. Broadly, the KM is the concentration of substrate that gives half-maximal velocity.

± gives the standard error. For some assays here: This sample holds only a part of the variants without activity.

To fix the notation:
B1: glmS ribozyme (parent)
chain: AUAAAAGCGCCAGAACUACAGAAAUGUAGUUGACGAGGAGGAGGUUUAUCGAAUUUUCGGCGGAUGCCUCCAAA

Common to all, as to conditions: with glucosamine-6-phosphate
In data set [1] the parent is B1. Briefly: kcat; higher = faster cleavage; RNA array. The procedure, abridged:
(§1)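 Barcoded ribozyme variants on sequenced MiSeq chips were transcribed in situ by E. coli RNA polymerase and followed at 37 °C through a hybridised Cy3 probe. Glucosamine-6-phosphate at 40 μM to 10 mM in HEPES/KCl/Mg(OAc)2 buffer was flowed in, and tiles were imaged over ~14 h. Signals were normalised to baseline and to non-cleaving reference variants, and per-tile medians were fit to one- or two-exponential decays to give kobs. Weighted Michaelis–Menten fits across concentrations gave kcat and KM.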

In data set [2] the parent is B1. Description: KM; higher = weaker cofactor use; RNA array. The essentials:
as §1

Data set [3] covers variants of B1. Briefly: self-cleavage kobs at 40 uM GlcN6P; higher = faster cleavage; RNA array. The procedure, abridged: as §1
Variants of B1 are the subject of data set [4]. Description: self-cleavage kobs at 160 uM GlcN6P; higher = faster cleavage; RNA array. The procedure, abridged: as §1
Data set [5] covers variants of B1. Description: self-cleavage kobs at 640 uM GlcN6P; higher = faster cleavage; RNA array. The essentials: as §1
Variants of B1 are the subject of data set [6]. Briefly: self-cleavage kobs at 2500 uM GlcN6P; higher = faster cleavage; RNA array. The procedure, abridged: as §1
Variants of B1 are the subject of data set [7]. Description: self-cleavage kobs at 10000 uM GlcN6P; higher = faster cleavage; RNA array. The procedure, abridged: as §1

As for AUAAAAGCGCCAGAACUACAGAAAUGUAGUUGACGAGGAGGAGGUUUAUCGAAUUUUCGGCGGGUGCCUUCAAA [A64G C70U], the kcat with glucosamine-6-phosphate [1] worked out at 0.00369 ± 0.001 s⁻¹. Also, in the data set with glucosamine-6-phosphate [2], the Michaelis-Menten constant (KM) worked out at 2630 ± 1000 µM. For the same variant, the “self-cleavage kobs at 40 uM GlcN6P” value with glucosamine-6-phosphate [3] came out at 7.77e-05 ± 7.5e-06 s⁻¹. In the data set with glucosamine-6-phosphate [4], the “self-cleavage kobs at 160 uM GlcN6P” value came out at 0.000149 ± 2.2e-05 s⁻¹. In addition, the “self-cleavage kobs at 640 uM GlcN6P” value with glucosamine-6-phosphate [5] is 0.000786 ± 7.7e-05 s⁻¹. In addition, the “self-cleavage kobs at 2500 uM GlcN6P” value with glucosamine-6-phosphate [6] was 0.00162 ± 0.00027 s⁻¹. For the same variant, in the data set with glucosamine-6-phosphate [7], the “self-cleavage kobs at 10000 uM GlcN6P” value stood at 0.00298 ± 0.00027 s⁻¹.

As to AUAAAAGCGCCAGAACUACAGAAAUGUAGUUGACGAGGAGGAGGUUUAUCGCAUUUUCGGCGGAUGCCUCUAAA [A52C C71U], the kcat with glucosamine-6-phosphate [1] was determined as 1.4e-05 ± 5.1e-07 s⁻¹. For the same variant, in the data set with glucosamine-6-phosphate [2], the Michaelis-Menten constant (KM) came out at 1650 ± 280 µM. Also, the “self-cleavage kobs at 40 uM GlcN6P” value in the data set with glucosamine-6-phosphate [3] is less than 1e-05 s⁻¹.

For the variant AUAAAAGCGCCAGAACUACAGAAAUGUAGUUGACGAGGUGGAGGUUUAUCGAAUUUUCGGCGGAUGGCUCCAAA [A39U C67G], the kcat with glucosamine-6-phosphate [1] is 0.00521 ± 0.0013 s⁻¹. Besides, in the data set with glucosamine-6-phosphate [2], the KM worked out at 1290 ± 420 µM. Further, the “self-cleavage kobs at 40 uM GlcN6P” value in the data set with glucosamine-6-phosphate [3] worked out at 0.000162 ± 1.8e-05 s⁻¹. Moreover, the “self-cleavage kobs at 160 uM GlcN6P” value with glucosamine-6-phosphate [4] turned out to be 0.000514 ± 7.5e-05 s⁻¹. Besides, the “self-cleavage kobs at 640 uM GlcN6P” value with glucosamine-6-phosphate [5] was found to be 0.00221 ± 0.00032 s⁻¹. The “self-cleavage kobs at 2500 uM GlcN6P” value in the data set with glucosamine-6-phosphate [6] was 0.00196 ± 0.00069 s⁻¹. Moreover, in the data set with glucosamine-6-phosphate [7], the “self-cleavage kobs at 10000 uM GlcN6P” value came out at 0.00516 ± 0.00068 s⁻¹.

In the case of AUAAAAGCGCCAGAACUACAGAAAUGUAGUUGACGAGGAGGAGGUUUAUCGAAUUUUCGGCGGAUGCCUCAAAA [C71A], in the data set with glucosamine-6-phosphate [1], the kcat worked out at 0.0153 ± 0.0014 s⁻¹. In addition, in the data set with glucosamine-6-phosphate [2], the KM was determined as 2490 ± 360 µM. Besides, the “self-cleavage kobs at 40 uM GlcN6P” value with glucosamine-6-phosphate [3] was 0.00092 ± 0.0004 s⁻¹. Besides, the “self-cleavage kobs at 160 uM GlcN6P” value with glucosamine-6-phosphate [4] amounted to 0.00104 ± 7.6e-05 s⁻¹. For the same variant, in the data set with glucosamine-6-phosphate [5], the “self-cleavage kobs at 640 uM GlcN6P” value was 0.00298 ± 0.00014 s⁻¹. The “self-cleavage kobs at 2500 uM GlcN6P” value with glucosamine-6-phosphate [6] was found to be 0.00761 ± 0.00039 s⁻¹. Further, in the data set with glucosamine-6-phosphate [7], the “self-cleavage kobs at 10000 uM GlcN6P” value turned out to be 0.0124 ± 0.0006 s⁻¹.

In the case of AUAAAAGCGCCAGAACUACAGAAAUGUAGUUGACGAGGAGGAGGUUUAUCGAAUUUCCGGCGGAUGCCUGCAAA [U57C C70G], in the data set with glucosamine-6-phosphate [1], the kcat amounted to 1.91e-05 ± 3.1e-06 s⁻¹.

As to AUAAAAGCGUCAGAACUACAGAAAUGUAGUUGACGAGGAGGAGGUUUAUCGAAUUUUCGGCGGGUGCCUCCAAA [C10U A64G], the catalytic constant (kcat) with glucosamine-6-phosphate [1] came to 3.72e-05 ± 4.4e-06 s⁻¹. For the same variant, in the data set with glucosamine-6-phosphate [6], the “self-cleavage kobs at 2500 uM GlcN6P” value is 3.75e-05 ± 5.1e-06 s⁻¹. Also, in the data set with glucosamine-6-phosphate [7], the “self-cleavage kobs at 10000 uM GlcN6P” value was 3.21e-05 ± 5.8e-06 s⁻¹.

Take AUAAAAGCGCCAGAACUACAGAAAUGUAGUUGACGAGGAGGAGGUUUAUCGAAAUUUCGGCGGGUGCCUCCAAA [U54A A64G]: the kcat with glucosamine-6-phosphate [1] came out at 0.0348 ± 0.011 s⁻¹. The Michaelis-Menten constant (KM) with glucosamine-6-phosphate [2] amounted to 2310 ± 830 µM. Further, the “self-cleavage kobs at 40 uM GlcN6P” value with glucosamine-6-phosphate [3] was 0.00058 ± 7.4e-05 s⁻¹. For the same variant, in the data set with glucosamine-6-phosphate [4], the “self-cleavage kobs at 160 uM GlcN6P” value was 0.00313 ± 0.0007 s⁻¹. In addition, the “self-cleavage kobs at 640 uM GlcN6P” value with glucosamine-6-phosphate [5] came out at 0.00654 ± 0.0014 s⁻¹. Besides, in the data set with glucosamine-6-phosphate [7], the “self-cleavage kobs at 10000 uM GlcN6P” value was 0.029 ± 0.0072 s⁻¹.

With AUAAAUGCGCCAGAACUACAGAAAUGUAGGUGACGAGGAGGAGGUUUAUCGAAUUUUCGGCGGAUGCCUCCAAA [A6U U30G], the kcat with glucosamine-6-phosphate [1] is 4.09e-05 ± 8.6e-06 s⁻¹. In the data set with glucosamine-6-phosphate [3], the “self-cleavage kobs at 40 uM GlcN6P” value is less than 1e-05 s⁻¹. The “self-cleavage kobs at 2500 uM GlcN6P” value with glucosamine-6-phosphate [6] came out at 4.14e-05 ± 1.3e-05 s⁻¹. The “self-cleavage kobs at 10000 uM GlcN6P” value with glucosamine-6-phosphate [7] was found to be 3.5e-05 ± 9.7e-06 s⁻¹.
